Test results taken from patent US20200157212A1 (Pfizer, published 2020).
Where a chain is given by its changes, count along the chain named.

Experiments:
[1] = biological target: T1, Human ROBO1 RSK mutant overexpressed on HEK293 cells (human, UniProt Q9Y6N7 26-1651); assay: flow cytometry, Geo MFI ROBO1-RSK/ROBO2-KSR HEK293 cells, 0.1 µg/ml
T1 construct: K137R and R139K already in the entry; also called ROBO1-RSK cells

Human ROBO2 Ig1-Ig2-His [2] = biological target: T2, Human ROBO2 Ig1-Ig2-His (human, UniProt Q9HCK4 31-220); assay: SPR (Biacore T200), Abcs35 immobilized on a CM5 chip, ROBO2 Ig1-Ig2-His as analyte; column head kdis(1/s)
T2 construct: the His tag is named only in the SPR paragraphs; the Octet and ELISA paragraphs print 'ROBO2 Ig1-Ig2' without a tag; also called ROBO2 Ig1-2; Human ROBO2 Ig 1,2
T2 sequence: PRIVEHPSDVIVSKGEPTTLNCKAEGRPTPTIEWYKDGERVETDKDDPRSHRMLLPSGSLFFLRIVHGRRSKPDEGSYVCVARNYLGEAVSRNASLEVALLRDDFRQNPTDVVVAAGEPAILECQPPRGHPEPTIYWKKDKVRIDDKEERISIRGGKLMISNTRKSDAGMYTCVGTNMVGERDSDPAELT
Method: […] Association and dissociation were followed over time.
Based upon several criteria, Abcs25 and Abcs35 were selected for further characterization. Using flow cytometry, improvement in the binding EC₅₀ to human ROBO2 relative to the parental 93H2 was evaluated. Starting at 6.7 nM, 11-point, 3-fold dilution series were made for each antibody and used to stain HEK293 overexpressing human ROBO2 as described above for the ROBO2 fold selectivity (Example 2). […] In addition to measuring improved binding to human ROBO2, it was important to ensure that high affinity binding to both cynomolgus monkey ROBO2 and rat ROBO2 was maintained. Using HEK293 cells overexpressing either cynomolgus monkey ROBO2 or rat ROBO2, the relative dose-dependent binding of 93H2, Abcs25 and Abcs35 was evaluated as described above. High affinity binding to both cynomolgus monkey and rat ROBO2 was maintained in Abcs25 and Abcs35 (Table 4). […] Briefly, Abcs35 was immobilized to 300 resonance units (RU) on a CM5 chip. Association of ROBO2 Ig1-Ig2-His (ROBO2) was measured over 5 minutes and dissociation was followed for a period of 10 minutes.

Human ROBO2 Ig1-Ig2-His [3] = biological target: T2, Human ROBO2 Ig1-Ig2-His; assay: Octet method and SPR method
Human ROBO1 Ig1-Ig2 = biological target: T3, Human ROBO1 Ig1-Ig2 (human, UniProt Q9Y6N7 68-257); assay: Octet Red BLI, Abcs35 captured on AHC sensors, ROBO proteins in solution
T3 construct: recombinant protein; also called ROBO1 Ig1-2; Human ROBO1 Ig 1,2
T3 sequence: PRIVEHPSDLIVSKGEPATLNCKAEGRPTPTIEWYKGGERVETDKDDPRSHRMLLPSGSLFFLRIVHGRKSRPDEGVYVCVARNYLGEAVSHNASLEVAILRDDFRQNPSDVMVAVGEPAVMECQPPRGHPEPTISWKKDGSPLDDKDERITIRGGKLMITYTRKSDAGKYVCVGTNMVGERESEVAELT
Text: (§1) Octet Red AHC (Anti-Human IgG FC) Sensors were loaded with Abcs35. The loaded sensors were then exposed to Human ROBO2 Ig1-2, Rat ROBO2 Ig 1-2, Human ROBO2 Ig1-2 with the RSK mutated to KSR as in ROBO1, or ROBO1 Ig1-2 then the sensors were moved to PBS only, lacking any ROBO1 or 2 proteins. The arrows indicate curves for each of the ROBO proteins tested.
(§2) Based upon the crystal structure described above, the following experiments were done to confirm the epitope specificity of 93H2 and/or affinity matured clones Abcs35. Using Octet Red, epitope specificity was confirmed biochemically. Abcs35, at 10 μg/ml, was captured on AHC sensors for 60 seconds. Recombinant human ROBO2 Ig1-Ig2, rat […], human ROBO2 containing the ROBO1 KSR sequence (ROBO2-KSR mutant), and human ROBO1 Ig1-Ig2, prepared at 100 nM, were used to interact with captured Abcs35. Association time was 100 seconds then dissociation was followed for 20 seconds. Abcs35 specifically bound human and rat ROBO2 but not human ROBO1 or the ROBO2-KSR mutant protein (FIG. 2).

[4] = biological target: T4, Human ROBO2 Ig 1,2 KSR mutant (human, UniProt Q7TPD3 31-220 (mouse entry), limits assumed); assay: as above
T4 construct: recombinant protein; also called ROBO2-KSR mutant protein; Human ROBO2 Ig1-2 with the RSK mutated to KSR
T4 chain: T2 sequence with R70K, K72R
Text: as §1, §2

T1 sequence (Q9Y6N7 other isoform, or with tags, fused parts or gaps mutant limits assumed): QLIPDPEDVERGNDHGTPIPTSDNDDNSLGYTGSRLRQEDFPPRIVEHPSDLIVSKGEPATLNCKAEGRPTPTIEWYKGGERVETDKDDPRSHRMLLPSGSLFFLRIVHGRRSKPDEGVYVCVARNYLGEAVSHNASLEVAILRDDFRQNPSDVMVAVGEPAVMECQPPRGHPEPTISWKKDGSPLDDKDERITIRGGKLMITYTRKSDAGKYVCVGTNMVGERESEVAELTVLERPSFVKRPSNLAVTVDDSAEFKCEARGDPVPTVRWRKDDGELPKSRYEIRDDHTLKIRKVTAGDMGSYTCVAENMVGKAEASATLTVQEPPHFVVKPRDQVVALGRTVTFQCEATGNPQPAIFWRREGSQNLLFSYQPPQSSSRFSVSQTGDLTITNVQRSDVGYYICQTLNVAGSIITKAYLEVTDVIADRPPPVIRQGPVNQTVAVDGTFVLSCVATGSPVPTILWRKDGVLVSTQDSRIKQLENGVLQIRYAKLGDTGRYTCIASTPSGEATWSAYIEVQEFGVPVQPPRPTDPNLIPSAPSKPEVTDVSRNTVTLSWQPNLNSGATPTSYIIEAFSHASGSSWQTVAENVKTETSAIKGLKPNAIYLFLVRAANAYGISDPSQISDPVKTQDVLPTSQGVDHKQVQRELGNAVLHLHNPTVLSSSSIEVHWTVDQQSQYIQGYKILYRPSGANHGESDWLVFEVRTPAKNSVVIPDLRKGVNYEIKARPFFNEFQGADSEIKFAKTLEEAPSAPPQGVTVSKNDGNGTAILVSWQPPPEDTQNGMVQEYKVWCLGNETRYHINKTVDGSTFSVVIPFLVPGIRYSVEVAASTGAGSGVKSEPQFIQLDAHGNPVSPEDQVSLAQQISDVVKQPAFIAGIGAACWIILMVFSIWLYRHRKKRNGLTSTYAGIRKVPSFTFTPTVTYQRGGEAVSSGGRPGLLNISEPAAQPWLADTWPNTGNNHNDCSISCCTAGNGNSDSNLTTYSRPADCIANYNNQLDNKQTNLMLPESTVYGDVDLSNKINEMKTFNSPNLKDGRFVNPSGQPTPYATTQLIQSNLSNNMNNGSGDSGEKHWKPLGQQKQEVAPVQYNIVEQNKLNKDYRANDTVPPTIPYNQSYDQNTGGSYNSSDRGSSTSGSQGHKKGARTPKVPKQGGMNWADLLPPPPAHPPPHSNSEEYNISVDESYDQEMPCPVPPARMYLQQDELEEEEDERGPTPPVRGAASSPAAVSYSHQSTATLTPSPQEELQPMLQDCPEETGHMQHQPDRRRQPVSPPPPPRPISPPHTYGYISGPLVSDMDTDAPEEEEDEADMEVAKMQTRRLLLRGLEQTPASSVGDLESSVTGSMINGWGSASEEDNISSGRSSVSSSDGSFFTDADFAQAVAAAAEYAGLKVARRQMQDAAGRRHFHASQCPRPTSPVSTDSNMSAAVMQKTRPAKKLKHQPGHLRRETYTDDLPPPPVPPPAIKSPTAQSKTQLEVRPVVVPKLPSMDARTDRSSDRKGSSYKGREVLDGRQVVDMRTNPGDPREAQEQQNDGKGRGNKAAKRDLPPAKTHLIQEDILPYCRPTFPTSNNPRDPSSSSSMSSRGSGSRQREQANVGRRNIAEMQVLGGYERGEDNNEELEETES

B1: 93H2 (antibody, human IgG1, kappa, V domains shown)
VH: EVQLVQSGAEVKKPGASVKVSCKASGYTFTGYYMHWVRQAPGQGLEWMGWINPNSGATNFPQKFQGRVTMTRDTSITTAYMDLSRLRSDDTAVYYCARESGDDAFDIWGQGTMVTVSS
VL: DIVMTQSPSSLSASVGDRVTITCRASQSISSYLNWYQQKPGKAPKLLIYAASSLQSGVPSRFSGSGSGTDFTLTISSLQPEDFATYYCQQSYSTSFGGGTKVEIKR
notes: also called parental 93H2; 93H2 mAb
Question: B1 was tested. Which “Fold Selectivity for RSK/KSR” value [1] did it give?
Answer: > 100 fold

B2: Abcs35 (antibody, human IgG1, kappa)
heavy: EVQLVQSGAEVKKPGASVKVSCKASGYTFTGYYMHWVRQAPGQGLEWMGWINPKNGDTEFPQKFQGRVTMTRDTSITTAYMDLSRLRSDDTAVYYCARESGDDAFDIWGQGTMVTVSSASTKGPSVFPLAPSSKSTSGGTAALGCLVKDYFPEPVTVSWNSGALTSGVHTFPAVLQSSGLYSLSSVVTVPSSSLGTQTYICNVNHKPSNTKVDKKVEPKSCDKTHTCPPCPAPEAAGAPSVFLFPPKPKDTLMISRTPEVTCVVVDVSHEDPEVKFNWYVDGVEVHNAKTKPREEQYNSTYRVVSVLTVLHQDWLNGKEYKCKVSNKALPAPIEKTISKAKGQPREPQVYTLPPSREEMTKNQVSLTCLVKGFYPSDIAVEWESNGQPENNYKTTPPVLDSDGSFFLYSKLTVDKSRWQQGNVFSCSVMHEALHNHYTQKSLSLSPGK
light: DIVMTQSPSSLSASVGDRVTITCRASQSISSYLNWYQQKPGKAPKLLIYAASSLQSGVPSRFSGSGSGTDFTLTISSLQPEDFATYYCQQSVGLFFGGGTKVEIKRTVAAPSVFIFPPSDEQLKSGTASVVCLLNNFYPREAKVQWKVDNALQSGNSQESVTEQDSKDSTYSLSSTLTLSKADYEKHKVYACEVTHQGLSSPVTKSFNRGEC
notes: fully human IgG1; VH of Ab96 with VL of Ab123
Question: Which results are given for B2?
Answer: koff (Human ROBO2 Ig1-Ig2-His [2]): 0.00793 s⁻¹; Kd (Human ROBO2 Ig1-Ig2-His [3]): 0.279 nM; binding result (Human ROBO1 Ig1-Ig2): no binding; binding result [4]: no binding
